The sequences below were run on MS2 coat protein (assay: apparent KD of MS2 coat protein, switch OFF state (with FMN for OFF switches, without FMN for ON switches); designed switch direction (-1 OFF switch, 1 ON switch): -1; higher = weaker reporter binding). Conditions: FMN input: 0 or 200 uM; Eterna round: R93 (includes R88 designs).
Summary of the method: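 SNAP-549-labelled MS2 coat protein was titrated onto designed RNA switches that had been transcribed on-chip from Illumina sequencing clusters. Amounts doubled from 0.7 or 1.5 nM to 3 µM in 100 mM Tris-HCl pH 7.5, 80 mM KCl, 4 mM MgCl2, with constant ligand or without. Apparent KD is the median per design of normalised cluster binding-curve fits.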

Q: Which “apparent KD of MS2 coat protein” value does the source give for “AAAAAACAUGAGGAUCACCCAUGUGAGGAUAUCGGAAACAAAAAAAACAAAAACAAAACGAGAAGGCACAAAAA [Amethyst 32]” here?
A: 0.0266 µM

Q: “CAGUGACAUGAGGAUCACCCAUGUUAGGAUAUGCGUGUUAGAAAAAAAAAGUUAAUAAGCAGAAGGAACAGUGG [JR_Exc001_Sub311]” was tested. Which “apparent KD of MS2 coat protein” value did it give?
A: 0.0616 µM

Q: For “AGCAAGUAAGGAUAUGCGAAGUCAGGACACACACUGACGAAGCAGAAGGUACAUGAGGAUCACCCAUGUAAGCA [JR_Exclusion-4 65% 3]”, which “apparent KD of MS2 coat protein” value is on record?
A: 0.0187 µM

Q: With “AAGACUACAGGAUAUACAUGAGGAUCACCCAUGUAACUGACAAGCAGAGUACGGAGAAGUAGAAGGGUAGUCAA [Ruby 33]” as the sequence, how does the “apparent KD of MS2 coat protein” value read?
A: 0.0301 µM

Q: How did the “apparent KD of MS2 coat protein” value turn out when “AAGAAGUCAGGAUAUGCUAAAGAAAUAAAAAGAAAGAAAGAACAUGAGGAUCACCCAUGUAGAAGGGACAAGAA [Seheqenre Sankhptahi]” was run?
A: 0.0389 µM

Q: With “AAGUUGGUAGGAUAUACGUGCAAUUGGUGUGUCCGGAAAAAACAUGAGGAUCACCCAUGUAGAAGGACCAAAAA [Quonmabi]” as the sequence, how does the “apparent KD of MS2 coat protein” value read?
A: 0.0363 µM

Q: With “GAAAAAGGAGGAUAUACGUACAUGUCAAAAGACGUGAAGGGACAUGAGGAUCACCCAUGUAGAAGGCUUAAAAG [Mat - Exclusion 2 - JL mod - D95]” as the sequence, how does the “apparent KD of MS2 coat protein” value read?
A: 0.0214 µM

Q: For “AGAAAACGAGGAUAUGCAAGGGAAGAAAGAAGAGAGAAAAAACAUGAGGAUCACCCAUGUAGAAGGUGUAAAAA [JR_Exc002_Sub1714]”, which “apparent KD of MS2 coat protein” value is on record?
A: 0.0371 µM

Q: Which “apparent KD of MS2 coat protein” value does the source give for “AGAAUACAUGAGGAUCACCCAUGUGAGGAUAUGCAGAUAAAAAUAAAAUAAAAUAAAUGCAGAAGGCACGAAAG [EX 1 May 21]” here?
A: 0.0861 µM

Q: “AAAAACAGAGGAUAUACAAAAUGAUGACGAAAGUCAUCAAAACAUGAGGAUCACCCAUGUAGAAGGCUGAAAAA [Mod of Meechl]” was tested. Which “apparent KD of MS2 coat protein” value did it give?
A: 0.0202 µM

Q: “AGGAAACAUGAGGAUCACCCAUGUGAGGAUAUAUGAAAGAAAAGAAAAGAAAGAAGAAGUAGAAGGCACAAGAA [Djer]” was tested. Which “apparent KD of MS2 coat protein” value did it give?
A: 0.0232 µM

Q: “GCUUGUGUAGGAUAUACAUGAGGAUCACCCAUGUGAGAGAAAAAAGUGAGAAAGAAAAGUAGAAGGACGUGAGG [salish99-ex3-80]” was tested. Which “apparent KD of MS2 coat protein” value did it give?
A: 0.0765 µM

Q: For “AAAACGGUAGGAUAUACGAUUUGGAACUAAACCGAGGAACCACAUGAGGAUCACCCAUGUAGAAGGGCCAAAAA [Mat - Exclusion 2 - JL mod - D81]”, which “apparent KD of MS2 coat protein” value is on record?
A: 0.0147 µM

Q: “AAGAACUCAGGAUAUACAUGAGGAUCACCCAUGUAAAAGAAAGAAGGGAAAGAGAAAAGUAGAAGGGAGAAGAA [Niumateped]” was tested. Which “apparent KD of MS2 coat protein” value did it give?
A: 0.0238 µM

Q: Which “apparent KD of MS2 coat protein” value does the source give for “AAAAGUCGAGGAUAUGCAAAAUGAUUGCGAAAGCAAUCAAAACAUGAGGAUCACCCAUGUAGAAGGCGACAAAA [Fiskers Exclusion 2 D3]” here?
A: 0.0111 µM

Q: With “AGUUGGCGAGGAUAUACAUGAGGAUCACCCAUGUGAAAAAAAAAAGUGAGAAAGAAAAGUAGAAGGCGCUGACA [Mat - Exclusion 3 - Lego mod - D89]” as the sequence, how does the “apparent KD of MS2 coat protein” value read?
A: 0.152 µM

Q: Which “apparent KD of MS2 coat protein” value does the source give for “AAAAGUUCAGGAUAUACAUGAGGAUCACCCAUGUAGAAAGGAAGUGUAAAAAAAAAGUGUAGAAGGGAGCAUGA [MS2 Riboswitches On Chip Exclusion 3 wbt2]” here?
A: 0.0218 µM

Q: Which “apparent KD of MS2 coat protein” value does the source give for “AGUCAUACAGGAUAUACAUGAGGAUCACCCAUGUAUAUCCAAAAAAAAAAAAACUCAUGUAGAAGGGUAUGACA [EX3 206: Super Stable 6]” here?
A: 0.0124 µM

Q: With “AAAAGGUCAGGAUAUACAAAAAAAAAAAAAAAAAAAAAAAAGUAGAAGGGACAUGAGGAUCACCCAUGUGAAAA [Exclusion 4 - Omei 2]” as the sequence, how does the “apparent KD of MS2 coat protein” value read?
A: 0.0403 µM

Q: “AACAGUACAGGAUAUACAUGAGGAUCACCCAUGUGAGAAUUAAGUGGCGAACCACAAAGUAGAAGGGUACUGGA [Mat - Exclusion 3 - JL mod - D1]” was tested. Which “apparent KD of MS2 coat protein” value did it give?
A: 0.469 µM

Q: How did the “apparent KD of MS2 coat protein” value turn out when “GAAAGGGCAGGAUAUGCAGAGAGAAAAAAAAAAAAAAAAAAACAUGAGGAUCACCCAUGUAGAAGGGCCGAAAG [salish99-ex2-03]” was run?
A: 0.0481 µM

Q: For “AAAAGCUCAGGAUAUACGGUCUGUUGUUGAGAAAUAAAAAAACAUGAGGAUCACCCAUGUAGAAGGGAGCGAAA [Exclusion2-cac3]”, which “apparent KD of MS2 coat protein” value is on record?
A: 0.111 µM

Q: How did the “apparent KD of MS2 coat protein” value turn out when “AGUUGGCGAGGAUAUACAUGAGGAUCACCCAUGUGAGAGAAAAAAGUGAGAAAGAAAAGUAGAAGGCGCUGACA [Norbert Elias]” was run?
A: 0.202 µM

Q: With “AACAGUACAGGAUAUACAUGAGGAUCACCCAUGUGAGAAUUAAGCAGCGUAACACAAAGUAGAAGGGUAAUGGA [Ruby 19]” as the sequence, how does the “apparent KD of MS2 coat protein” value read?
A: 0.0439 µM

Q: For “AACUGACAUGAGGAUCACCCAUGUCAGGAUAUGAUAUGUAAAAAAAAAAAAAUACUUAUCAGAAGGGACAUGGA [Design 42: Sub-opt BB]”, which “apparent KD of MS2 coat protein” value is on record?
A: 0.03 µM

Q: How did the “apparent KD of MS2 coat protein” value turn out when “AAAUUGUCAGGAUAUCCAGCUAUACGAAAUAUAUAUACACGGGAGAAGGGACAUGAGGAUCACCCAUGUUUGAA [JR_Exc004_Sub702]” was run?
A: 0.0276 µM

Q: With “AAAAAGAGAGGAUAUGCAGGAGGUAAGGUCAAAAAAAAAAAACAUGAGGAUCACCCAUGUAGAAGGUUUAAAAA [Ecls2-VI]” as the sequence, how does the “apparent KD of MS2 coat protein” value read?
A: 0.0235 µM

Q: “AAAGUGCAAGGAUAUAUAUGAAAAGUUACGAAAGUAACAAAACAUGAGGAUCACCCAUGUAGAAGGUGCACAAA [Seclusion (MS2 riboswitches - Exlclusion 2)]” was tested. Which “apparent KD of MS2 coat protein” value did it give?
A: 0.0183 µM

Q: With “AAGAAACAUGAGGAUCACCCAUGUGAGGAUAUGGAAGAAAGAAAGAAAGAAAGAAGAACCAGAAGGCACAAAGG [Publius Rubrius Barbarus]” as the sequence, how does the “apparent KD of MS2 coat protein” value read?
A: 0.105 µM

Q: For “AAAUUGUCAGGAUAUCCUAUAAUAAUAAAAUAGAGGAGAUAGGAGAAGGGACAUGAGGAUCACCCAUGUAAAAC [May 85]”, which “apparent KD of MS2 coat protein” value is on record?
A: 0.0312 µM

Q: With “CUCAUGUCAGGAUAUGUAGCAUGAUACGAAAGUAUCAUGCUACAGAAGGGACAUGAGGAUCACCCAUGUAAAAA [Ex4: 942]” as the sequence, how does the “apparent KD of MS2 coat protein” value read?
A: 0.0339 µM

Q: With “AAAAAGUGAGGAUAUACAUGAGGAUCACCCAUGUUAAAAAAAAAAAAAUAUAAAAAUAGUAGAAGGCACAAAAA [Default title]” as the sequence, how does the “apparent KD of MS2 coat protein” value read?
A: 0.0413 µM

Q: How did the “apparent KD of MS2 coat protein” value turn out when “AGCAUGUGAGGAUAUGCGGACUCCAAUAAAUCUGGAGUCCAGUAGAAGGCACAUGAGGAUCACCCAUGUGAUAA [Soenaesma]” was run?
A: 0.117 µM

Q: For “AUAAAGUCAGGAUAUGUAAAAAUAACGAAAGUUAUAAAUAAACAGAAGGGACAUGAGGAUCACCCAUGUAAAAU [Meechl MS2 Ex4]”, which “apparent KD of MS2 coat protein” value is on record?
A: 0.0412 µM

Q: “AAGAAGUGAGGAUAUCGAAGACAGACGAAAAGUCUGUCAAACGAGAAGGCACAUGAGGAUCACCCAUGUGGGAG [Mat - Exaclusion 4 - Eli mod - D74]” was tested. Which “apparent KD of MS2 coat protein” value did it give?
A: 0.277 µM

Q: For “AACAAACAUGAGGAUCACCCAUGUCAGGAUAUGCAAAUAACAAACAACAAACAACAAAGCAGAAGGGAUAGGAA [Mat - Exclusion 1 - Eli mod - D52]”, which “apparent KD of MS2 coat protein” value is on record?
A: 0.0212 µM

Q: Which “apparent KD of MS2 coat protein” value does the source give for “AAAAAGGCAGGAUAUACGAAGCUAAGACAAAUAAGCAAGGGACAUGAGGAUCACCCAUGUAGAAGGGCCAAAAA [Exclusion 2-01... 60% 3]” here?
A: 0.132 µM

Q: How did the “apparent KD of MS2 coat protein” value turn out when “AAAAAACAUGAGGAUCACCCAUGUAAGGAUAUGCCUAAAAAAAAAAAAAAAAAAAAUGGCAGAAGGUGCAAAAA [excalibur15]” was run?
A: 0.0353 µM

Q: With “AAAAAGUCAGGAUAUGUACAAAAUAAAAUAAAAAUAAAAGUACAGAAGGGACAUGAGGAUCACCCAUGUAAAAA [Ex 4 May 11]” as the sequence, how does the “apparent KD of MS2 coat protein” value read?
A: 0.0366 µM

Q: “AAAAAGUGAGGAUAUGGUAAAAAAAAAAAAAAAAAGCACCUCCAGAAGGCACAUGAGGAUCACCCAUGUCGAAA [Jolly's Folly 6 - Jieux - Exclusion 4]” was tested. Which “apparent KD of MS2 coat protein” value did it give?
A: 0.0313 µM

Q: “AAAAAACAUGAGGAUCACCCAUGUAAGGAUAUCUAAAAUAAAAGAAAAAUAAAGAAAAGGAGAAGGUACAUGAA [JL wbt mod 21]” was tested. Which “apparent KD of MS2 coat protein” value did it give?
A: 0.0506 µM

Q: How did the “apparent KD of MS2 coat protein” value turn out when “AAAAAGGUAGGAUAUACAUGAGGAUCACCCAUGUAAAAAAAAACAAGAGAAAAAAAAUGUAGAAGGGCCAAAAA [Ex3 Malc#4]” was run?
A: 0.0169 µM

Q: How did the “apparent KD of MS2 coat protein” value turn out when “UUUUGACAUGAGGAUCACCCAUGUCAGGAUAUAGUAGGACAAAAAAAAAAAAGUUCUACUAGAAGGGAUAUGAA [Design 16: Not So Super Stable 2]” was run?
A: 0.0267 µM

Q: “AACAGUACAGGAUAUACAUGAGGAUCACCCAUGUGAAAAUAAAGUGGCGUACCACAAAGUAGAAGGGUACUGAA [Mat - Exclusion 3 - JL mod - D26]” was tested. Which “apparent KD of MS2 coat protein” value did it give?
A: 0.124 µM

Q: Which “apparent KD of MS2 coat protein” value does the source give for “AAGAAUGUAGGAUAUACAAGGAAGAAAGAAAAGAAAAGAAAACAUGAGGAUCACCCAUGUAGAAGGACAUAGAA [EteRNA is fun!]” here?
A: 0.0182 µM

— the supplement of paper PMC9170038
